Drawing on patent US5633227, this text covers Ki and kcat/Km for the disappearance of full-length Dns-VIP (1-28), no addition for four substances.

The target of test [1] is human mast cell tryptase purified from human lung (human) (UniProt Q15661). Description: VIP assay (loss of full-length Dns-VIP), Dixon plot, human lung tryptase.
The target is the same in test [2]. Description: GPK-AMC enzyme inhibition assay, Dixon plot, human lung tryptase.
For test [3] the target is unchanged. Description: VIP assay (formation of Dns-VIP-(1-14)), Dixon plot, human lung tryptase.
Test [4] concerns the target dansylated vasoactive intestinal peptide (Dns-VIP, 28 amino acids) (Homo sapiens (Human)) (UniProt P01282).

As usually defined, the Ki is the equilibrium dissociation constant of an inhibitor or competing ligand from its target. Higher therefore signals lower affinity.

Chain of N-terminal domain of SLPI (amino acids 1-49) (P03973 26-74 limits assumed): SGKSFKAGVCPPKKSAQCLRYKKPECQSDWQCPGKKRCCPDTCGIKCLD
Chain of C-terminal domain of SLPI (amino acids 50-107) (P03973 75-132 limits assumed): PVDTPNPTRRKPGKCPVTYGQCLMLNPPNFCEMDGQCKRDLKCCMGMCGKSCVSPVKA
Chain of recombinant secretory leukocyte protease inhibitor (SLPI) (P03973 26-132): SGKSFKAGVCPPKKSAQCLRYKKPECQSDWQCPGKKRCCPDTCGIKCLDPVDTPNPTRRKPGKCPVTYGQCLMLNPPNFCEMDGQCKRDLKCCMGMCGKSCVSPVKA

Consider “recombinant secretory leukocyte protease inhibitor (SLPI) (from UniProt P03973)”, for which the Ki in test [1] came to 8 nM.

For the substance “N-terminal domain of SLPI (amino acids 1-49) (from UniProt P03973)”, the inhibition constant (Ki) in test [2] was 290 nM; in test [3] it was 130 nM.

Consider “human mast cell tryptase purified from human lung (from UniProt Q15661) (enzyme)”, for which, in test [4], the kcat/Km for the disappearance of full-length Dns-VIP (1-28), no addition worked out at 1.8e+07 M⁻¹ s⁻¹.

“C-terminal domain of SLPI (amino acids 50-107) (from UniProt P03973)”: the Ki is 4.8 nM in test [2] and 1.6 nM in test [3].
